Seven molecules from PMC4786784 (Nature Communications, 2016) can be followed below.

For series [1], the target named is T1, full-length human U2AF^65 (residues 1–475) (human, UniProt P26368-1 1-475).
T1 construct: U2AF65 (U2AF2), human, full length, residues 1-475; also called flU2AF^65; U2AF2; source: expressed as a GST fusion protein, purified (GST cleavage, SP-HiTrap ion exchange)
The series is described as follows: SEC; U2AF65 combined with slight excess U2AF35-UHM (ratio 1:1.2), dialysed overnight, heterodimer purified on Superdex-200 prep-grade in 150 mM NaCl, 25 mM HEPES pH 6.8, 0.2 mM TCEP. To be noted: both partners purified. On the technique in general: SEC sorts molecules by how far they enter the pores of the column.

Series [2] addresses dU2AF65 1,2 (human, UniProt P26368 148-336, del238-257). Kind of series: fluorescence anisotropy; Anisotropy: 100 mM NaCl, 15 mM HEPES pH 6.8, 0.2 mM TCEP, 0.1 U/ul Superase-In, 30 nM RNA, 23 C; smFRET: 50 mM HEPES pH 7.4, 100 mM NaCl, room temperature. Background: In fluorescence polarisation assays a small probe gives low polarisation when free and higher when bound to something large.

Series [3] addresses U2AF65 1,2L 12Gly (human, UniProt P26368 141-342, M144G;L235G;M238G;V244G;V246G;V249G;V250G;S251G;T252G;V253G;V254G;P255G). Described as above.
Series [4] concerns the target flU2AF65;U2AF35-UHM (human;human, UniProt P26368;Q01081 1-475;43-146, |). The description is as above.
Series [5] has as its target U2AF65 1,2L 3Mut (human, UniProt P26368 141-342, Q147A;R227A;V254P). Described as above.
Series [6] concerns the target U2AF65 1,2L 5Gly (human, UniProt P26368 141-342, S251G;T252G;V253G;V254G;P255G). The description is as above.
Series [7] has as its target dU2AF65 1,2L (human, UniProt P26368 141-342, del238-257). The description is as above.
Series [8] deals with U2AF65 1,2L 3Gly (human, UniProt P26368 141-342, V249G;V250G;V254G). The series is described as above.
Series [9] concerns the target U2AF65 1,2L V254P (human, UniProt P26368 141-342, V254P). Described as above.
The target in series [10] is U2AF65 1,2L R227A (human, UniProt P26368 141-342, R227A). Described as above.
The target of series [11] is U2AF65 1,2L Q147A (human, UniProt P26368 141-342, Q147A). Described as above.
Series [12] has as its target U2AF65 1,2L NLALA (human, UniProt P26368 141-342, S251N;T252L;V253A;V254L;P255A). Described as above.
In series [13] the target is T2, U2AF65 1,2L FRET (human, UniProt P26368 113-343, A181C;C305A;Q324C). Kind of series: smFRET; slide-tethered protein, 10 uM RNA; Anisotropy: 100 mM NaCl, 15 mM HEPES pH 6.8, 0.2 mM TCEP, 0.1 U/ul Superase-In, 30 nM RNA, 23 C; smFRET: 50 mM HEPES pH 7.4, 100 mM NaCl, room temperature.
The target in series [14] is T3, U2AF65 1,2L (human, UniProt P26368 141-342). The series is described as follows: fluorescence anisotropy; Anisotropy: 100 mM NaCl, 15 mM HEPES pH 6.8, 0.2 mM TCEP, 0.1 U/ul Superase-In, 30 nM RNA, 23 C; smFRET: 50 mM HEPES pH 7.4, 100 mM NaCl, room temperature.
In series [15] the target is T2, U2AF65 1,2L FRET. Kind of series: smFRET; slide-tethered protein, 5 uM RNA; Anisotropy: 100 mM NaCl, 15 mM HEPES pH 6.8, 0.2 mM TCEP, 0.1 U/ul Superase-In, 30 nM RNA, 23 C; smFRET: 50 mM HEPES pH 7.4, 100 mM NaCl, room temperature.
Series [16] concerns the target T3, U2AF65 1,2L. The series is described as follows: fluorescence anisotropy; Anisotropy: 100 mM NaCl, 15 mM HEPES pH 6.8, 0.2 mM TCEP, 0.1 U/ul Superase-In, 30 nM RNA, 23 C; smFRET: 50 mM HEPES pH 7.4, 100 mM NaCl, room temperature. This is another data set of the same source.

T3 sequence (P26368 141-342, one chain of several): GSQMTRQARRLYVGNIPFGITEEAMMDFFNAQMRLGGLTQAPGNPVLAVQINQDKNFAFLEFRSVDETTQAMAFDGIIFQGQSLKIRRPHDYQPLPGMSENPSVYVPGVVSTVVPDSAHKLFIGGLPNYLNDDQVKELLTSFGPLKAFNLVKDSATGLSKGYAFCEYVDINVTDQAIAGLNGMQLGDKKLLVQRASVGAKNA
flU2AF65;U2AF35-UHM, sequence (P26368 whole entry, one chain of several): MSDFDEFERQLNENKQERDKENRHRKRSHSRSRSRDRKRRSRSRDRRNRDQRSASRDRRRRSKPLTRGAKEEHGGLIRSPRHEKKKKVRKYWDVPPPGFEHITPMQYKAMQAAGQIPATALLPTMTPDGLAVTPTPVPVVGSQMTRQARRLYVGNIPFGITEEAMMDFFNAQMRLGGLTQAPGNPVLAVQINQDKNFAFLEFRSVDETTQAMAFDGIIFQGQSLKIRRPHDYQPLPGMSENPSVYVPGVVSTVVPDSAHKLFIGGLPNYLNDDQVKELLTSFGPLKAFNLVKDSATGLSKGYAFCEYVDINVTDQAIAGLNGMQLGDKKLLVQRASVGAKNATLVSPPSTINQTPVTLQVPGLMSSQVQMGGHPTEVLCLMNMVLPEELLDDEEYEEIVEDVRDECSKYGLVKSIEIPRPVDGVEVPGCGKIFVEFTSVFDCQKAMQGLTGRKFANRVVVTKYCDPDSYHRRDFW
T2 sequence (P26368 113-343 A181C/C305A/Q324C, one chain of several): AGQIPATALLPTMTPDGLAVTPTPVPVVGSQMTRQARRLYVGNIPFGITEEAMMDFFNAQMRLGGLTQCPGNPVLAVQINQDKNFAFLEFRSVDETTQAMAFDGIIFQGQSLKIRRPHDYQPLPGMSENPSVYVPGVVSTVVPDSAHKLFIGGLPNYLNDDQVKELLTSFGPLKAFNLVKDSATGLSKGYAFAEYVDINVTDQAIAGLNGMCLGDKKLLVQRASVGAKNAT
U2AF65 1,2L R227A, sequence (P26368 141-342 R227A, one chain of several): as the sequence (P26368 141-342, one chain of several) above, with R87A counted along it
U2AF65 1,2L 3Gly, sequence (P26368 141-342 V249G/V250G/V254G, one chain of several): as the sequence (P26368 141-342, one chain of several) above, with V109G, V110G, V114G counted along it
U2AF65 1,2L 12Gly, sequence (P26368 141-342 M144G/L235G/M238G/V244G/V246G/V249G/V250G/S251G/T252G/V253G/V254G/P255G, one chain of several): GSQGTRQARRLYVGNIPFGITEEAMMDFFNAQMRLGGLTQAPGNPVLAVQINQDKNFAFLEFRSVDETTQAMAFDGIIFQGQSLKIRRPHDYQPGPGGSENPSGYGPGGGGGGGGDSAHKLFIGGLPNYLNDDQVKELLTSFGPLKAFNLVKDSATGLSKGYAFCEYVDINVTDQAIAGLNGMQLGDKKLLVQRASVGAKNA
U2AF65 1,2L NLALA, sequence (P26368 141-342 S251N/T252L/V253A/V254L/P255A, one chain of several): as the sequence (P26368 141-342, one chain of several) above, with S111N, T112L, V113A, V114L, P115A counted along it
T1 sequence (P26368 whole entry, the tested form may be a part): as the sequence (P26368 whole entry, one chain of several) above
dU2AF65 1,2L, sequence (P26368 other isoform, or with tags, fused parts or gaps del238-257): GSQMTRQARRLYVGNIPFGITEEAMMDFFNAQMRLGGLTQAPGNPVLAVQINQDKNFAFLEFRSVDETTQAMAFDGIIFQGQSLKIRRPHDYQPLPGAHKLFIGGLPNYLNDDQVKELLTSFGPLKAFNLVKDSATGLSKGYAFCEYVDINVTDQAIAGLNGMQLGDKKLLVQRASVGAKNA
U2AF65 1,2L 5Gly, sequence (P26368 141-342 S251G/T252G/V253G/V254G/P255G, one chain of several): as the sequence (P26368 141-342, one chain of several) above, with S111G, T112G, V113G, V114G, P115G counted along it
dU2AF65 1,2, sequence (P26368 other isoform, or with tags, fused parts or gaps del238-257): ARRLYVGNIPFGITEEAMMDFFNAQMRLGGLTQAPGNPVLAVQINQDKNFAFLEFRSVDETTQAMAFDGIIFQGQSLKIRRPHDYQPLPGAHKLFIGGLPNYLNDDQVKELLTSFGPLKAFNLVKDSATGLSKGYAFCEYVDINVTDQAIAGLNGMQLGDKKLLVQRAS
U2AF65 1,2L Q147A, sequence (P26368 141-342 Q147A, one chain of several): as the sequence (P26368 141-342, one chain of several) above, with Q7A counted along it
U2AF65 1,2L 3Mut, sequence (P26368 141-342 Q147A/R227A/V254P, one chain of several): as the sequence (P26368 141-342, one chain of several) above, with Q7A, R87A, V114P counted along it
U2AF65 1,2L V254P, sequence (P26368 141-342 V254P, one chain of several): as the sequence (P26368 141-342, one chain of several) above, with V114P counted along it

B1: U2AF^35-UHM (U2AF homology motif; residues 43–146) (domain or fragment, UniProt Q01081-1 43-146, looked up)
chain: SQTIALLNIYRNPQNSSQSADGLRCAVSDVEMQEHYDEFFEEVFTEMEEKYGEVEEMNVCDNLGDHLVGNVYVKFRREEDAEKAVIDLNNRWFNGQPIHAELSP
notes: also called heterodimerization domain of the U2AF^35 subunit; U2AF1; source: expressed as a GST fusion protein, purified (GST cleavage, Q-HiTrap ion exchange)
B1: the binding result in series [1] is “binds”.
Usually Kd stands for the free concentration of one partner at which half of the binding sites on the other are occupied at equilibrium, for simple one-to-one binding. A higher Kd goes with weaker binding. Take CCCUUUUUUUUCC (ssRNA) [AdML Py tract 13mer]: the dissociation constant (Kd) stood at 5 ± 0.1 µM in series [2]; 0.088 ± 0.021 µM in series [3]; 0.03 ± 0.003 µM in series [4]; 5.63 ± 0.07 µM in series [5]; 0.061 ± 0.003 µM in [6]; 0.123 ± 0.005 µM in series [7]. Besides, the Kd was 0.047 ± 0.004 µM in [8]; 0.137 ± 0.01 µM in series [9]; 0.166 ± 0.002 µM in [10]; 0.171 ± 0.021 µM in series [11]; 0.045 ± 0.003 µM in [12].
Consider CUUUUUAAUUUCCA (ssRNA) [rArA-interrupted Py tract], for which, in [13], the binding result was “binds”.
With CCCCCCCUUUUCC (ssRNA) [3'-4rU], the Kd was determined as 0.414 ± 0.012 µM in series [4] and 0.417 ± 0.01 µM in series [14].
For CCUUUUCCCCCCC (ssRNA) [5'-4rU], in that order: 0.041 ± 0.002 µM and 0.031 ± 0.003 µM.
Consider CCUUUUUUUUCC (ssRNA) [AdML Py tract 12mer], for which, in [15], the binding result is recorded as “binds”.
Consider CUUUUUAAUUUCC (ssRNA) [AdML Py tract rArA mutant], for which the binding signal in series [16] was ~5 fold lower affinity than AdML.
